For experiment [1], the target named is T1, TmrAB D125A^TmrB (Thermus thermophilus, UniProt Q72J05 1-600; Q72J04 1-578, D125A).
T1 construct: TmrA, Thermus thermophilus, the chain of TmrAB with the canonical Walker B motif; TmrB, Thermus thermophilus, the chain of TmrAB with the non-canonical Walker B motif; also called D125A^TmrB variant
T1 sequence 1: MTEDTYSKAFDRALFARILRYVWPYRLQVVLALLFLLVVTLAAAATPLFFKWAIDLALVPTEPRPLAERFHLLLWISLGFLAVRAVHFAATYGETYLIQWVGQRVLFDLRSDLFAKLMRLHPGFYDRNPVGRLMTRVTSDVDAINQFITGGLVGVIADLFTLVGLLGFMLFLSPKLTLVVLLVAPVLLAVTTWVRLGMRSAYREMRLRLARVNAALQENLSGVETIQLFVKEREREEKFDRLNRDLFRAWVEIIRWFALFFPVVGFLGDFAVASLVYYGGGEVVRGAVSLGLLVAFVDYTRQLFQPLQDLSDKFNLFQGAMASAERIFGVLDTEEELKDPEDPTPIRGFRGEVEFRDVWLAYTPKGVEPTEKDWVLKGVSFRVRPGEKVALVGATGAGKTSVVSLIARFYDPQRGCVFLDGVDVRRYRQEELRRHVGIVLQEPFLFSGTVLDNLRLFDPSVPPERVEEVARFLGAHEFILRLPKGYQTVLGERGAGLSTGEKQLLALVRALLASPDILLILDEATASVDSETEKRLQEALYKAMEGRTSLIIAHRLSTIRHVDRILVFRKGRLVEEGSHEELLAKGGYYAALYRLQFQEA
T1 sequence 2: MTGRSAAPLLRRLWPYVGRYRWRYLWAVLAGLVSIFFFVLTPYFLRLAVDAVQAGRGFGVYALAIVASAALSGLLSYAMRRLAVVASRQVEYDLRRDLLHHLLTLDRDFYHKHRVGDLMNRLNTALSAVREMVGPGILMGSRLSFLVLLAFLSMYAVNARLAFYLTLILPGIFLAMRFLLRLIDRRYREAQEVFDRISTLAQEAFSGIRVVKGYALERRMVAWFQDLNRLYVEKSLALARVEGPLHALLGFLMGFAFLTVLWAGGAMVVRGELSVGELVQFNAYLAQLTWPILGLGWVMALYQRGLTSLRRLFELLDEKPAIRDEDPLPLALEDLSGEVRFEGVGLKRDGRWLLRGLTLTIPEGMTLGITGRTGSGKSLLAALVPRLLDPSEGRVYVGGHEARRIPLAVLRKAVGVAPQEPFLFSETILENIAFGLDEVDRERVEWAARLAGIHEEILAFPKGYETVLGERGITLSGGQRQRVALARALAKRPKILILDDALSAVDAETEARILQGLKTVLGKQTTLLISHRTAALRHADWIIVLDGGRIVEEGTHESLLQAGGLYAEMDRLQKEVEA
The experiment is described as follows: fluorescence polarisation; 1.7 uM TmrAB with 50 nM RRY(C^Fluorescein)KSTEL in SEC buffer (20 mM HEPES, 150 mM NaCl, pH 7, 0.05% ß-DDM), 15 minutes on ice, in the absence or presence of 5 mM ATP and 10 mM MgCl2; read at 25°C (the results say 4°C); signal normalized to WT without ATP. To be noted: both partners purified. A general note: In fluorescence polarisation assays a small probe gives low polarisation when free and higher when bound to something large.

Experiment [2] deals with T2, TmrAB R132A^TmrA (Thermus thermophilus, UniProt Q72J05 1-600; Q72J04 1-578, R132A).
T2 construct: TmrA, Thermus thermophilus, the chain of TmrAB with the canonical Walker B motif; TmrB, Thermus thermophilus, the chain of TmrAB with the non-canonical Walker B motif
T2 sequence 1: T1 sequence 1 with R132A
T2 sequence 2: T1 sequence 2 with A125D
The description is as above. To be noted: both partners purified.

Residue numbers refer to the chain shown, from its start. No end group written: not given here. fluorescein = fluorescein label attached to the Cys side chain

B1: fluorescent transport substrate peptide RRY(C^Fluorescein)KSTEL (peptide)
peptide: RRYC(fluorescein)KSTEL
notes: fluorescein-labelled transport substrate peptide of TmrAB; also called fluorescently-labeled peptide substrate; peptide substrate; source: bought: Genscript
B1: the binding result in experiment [1] and in experiment [2] was “binds” in each case.

Source of the values: doi:10.1101/2020.01.12.903617, “The peptide sensor motif stabilizes the outward-facing conformation of TmrAB” (bioRxiv, 2020).
